This is an account of results in US20060135432A1 (NEUROGENEX, published 2006).

The target of assay [1] is T1, Primate GnRH-2 receptor (Primate (from a CV-1 cell genome)). The experiment in a line: cell-based or functional assay.
The target of assay [2] is T1, Primate GnRH-2 receptor. The experiment in a line: cell-based or functional assay. The source holds these as a separate data set.
Assay [3] concerns the target bfGnRHR-2 (bullfrog). Briefly: cell-based or functional assay.
Assay [4] deals with T2, bfGnRHR-3 (bullfrog).
T2 construct: whole, on cells; also called bullfrog GnRH receptor 3; bfGnRH receptor
Briefly: displacement of I^125-GnRH-2 from membranes of GH3 cells expressing bfGnRHR-3. The method, then: (§1) After 48 hours, the cells were homogenized to obtain cellular membranes, which were then dissolved in binding buffer (40 mM Tris, pH 7.4, 2 mM MgCl₂).

Assay [5] addresses T3, rat GnRHR (rat, UniProt P30969 1-327).
T3 sequence (looked up): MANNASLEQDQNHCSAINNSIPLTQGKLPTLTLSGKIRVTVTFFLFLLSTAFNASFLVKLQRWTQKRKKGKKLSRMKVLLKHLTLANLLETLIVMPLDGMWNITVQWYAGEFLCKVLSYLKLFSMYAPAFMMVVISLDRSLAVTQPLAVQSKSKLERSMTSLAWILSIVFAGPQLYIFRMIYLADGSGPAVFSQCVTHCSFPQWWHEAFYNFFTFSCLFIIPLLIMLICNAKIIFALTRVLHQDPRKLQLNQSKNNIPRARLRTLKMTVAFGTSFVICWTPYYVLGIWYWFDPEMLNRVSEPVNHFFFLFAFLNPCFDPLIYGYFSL
Briefly: cell-based or functional assay.

Assay [6] addresses bfGnRHR-1 (bullfrog). Briefly: cell-based or functional assay.
Assay [7] has as its target bfGnRHR-2 (bullfrog). The experiment in a line: cell-based or functional assay. This is another data set of the same source.
Assay [8] concerns the target T2, bfGnRHR-3. Briefly: cell-based or functional assay.
The target of assay [9] is T3, rat GnRHR. Briefly: displacement of I^125-GnRH-2 from membranes of GH3 cells expressing rat GnRHR. On the procedure:
as §1

The target of assay [10] is T3, rat GnRHR. The experiment in a line: cell-based or functional assay. The source holds these as a separate data set.
Assay [11] concerns the target bfGnRHR-1 (bullfrog). The experiment in a line: cell-based or functional assay. This is another data set of the same source.
The target in assay [12] is bfGnRHR-2 (bullfrog). The experiment in a line: cell-based or functional assay. This is another data set of the same source.

[ ]: non-standard residue; d: D form. dPhe(4-Cl) = N[C@H](Cc1ccc(Cl)cc1)C(=O)O; d2Nal = N[C@H](Cc1ccc2ccccc2c1)C(=O)O; dCit = NC(=O)NCCC[C@@H](N)C(=O)O; d3Pal = N[C@H](Cc1cccnc1)C(=O)O; pGlu = O=C1CC[C@@H](C(=O)O)N1

B1: Trptorelix-2 (peptide)
peptide: Ac-[d2Nal][dPhe(4-Cl)][d3Pal]SH[dCit]WYP[dA]-NH2
SMILES: CC(=O)N[C@H](Cc1ccc2ccccc2c1)C(=O)N[C@H](Cc1ccc(Cl)cc1)C(=O)N[C@H](Cc1cccnc1)C(=O)N[C@@H](CO)C(=O)N[C@@H](Cc1c[nH]cn1)C(=O)N[C@H](CCCNC(N)=O)C(=O)N[C@@H](Cc1c[nH]c2ccccc12)C(=O)N[C@@H](Cc1ccc(O)cc1)C(=O)N1CCC[C@H]1C(=O)N[C@H](C)C(N)=O
B1: in the assay with Primate GnRH-2 receptor [1], the “Log IC50, inhibition of GnRH-2-induced c-fos-luc luciferase activity” value was -6.19 log IC50 (concentration unit not printed).

B2: [D-Ala^6, Leu^7]GnRH-2 (peptide)
peptide: [pGlu]HWSH[dA]LYPG-NH2
SMILES: CC(C)C[C@H](NC(=O)[C@@H](C)NC(=O)[C@H](Cc1c[nH]cn1)NC(=O)[C@H](CO)NC(=O)[C@H](Cc1c[nH]c2ccccc12)NC(=O)[C@H](Cc1c[nH]cn1)NC(=O)[C@@H]1CCC(=O)N1)C(=O)N[C@@H](Cc1ccc(O)cc1)C(=O)N1CCC[C@H]1C(=O)NCC(N)=O
For B2, in the assay with Primate GnRH-2 receptor [2], the “Emax (fold-induction), luciferase activation” value (“Emax (fold-induction)” for short) is 9.04 fold-induction and the “Ratio^a (EC50 relative to the EC50 of GnRH-2), luciferase activation” value was 2.51 ratio to GnRH-2.

Ac-[d2Nal][dPhe(4-Cl)][d3Pal]SY[dCit]LRP[dA]-NH2 [Cetrorelix]: the “Log IC50, inhibition of GnRH-2-induced inositol phosphate production in GH3 cells expressing the receptor” value in the assay with bfGnRHR-2 [3] was -6.43 log IC50 (concentration unit not printed).

B3: [Tyr^5, D-Ala^6, Leu^8]GnRH-2 (peptide)
peptide: [pGlu]HWSY[dA]WLPG-NH2
SMILES: CC(C)C[C@H](NC(=O)[C@H](Cc1c[nH]c2ccccc12)NC(=O)[C@@H](C)NC(=O)[C@H](Cc1ccc(O)cc1)NC(=O)[C@H](CO)NC(=O)[C@H](Cc1c[nH]c2ccccc12)NC(=O)[C@H](Cc1c[nH]cn1)NC(=O)[C@@H]1CCC(=O)N1)C(=O)N1CCC[C@H]1C(=O)NCC(N)=O
As to B3, in the assay with Primate GnRH-2 receptor [2], the “Emax (fold-induction)” value stood at 7.35 fold-induction and the “Ratio^a (EC50 relative to the EC50 of GnRH-2), luciferase activation” value was 3.01 ratio to GnRH-2.

B4: [D-Ala^6, Tyr^7, Trp^8]GnRH-2 (peptide)
peptide: [pGlu]HWSH[dA]YWPG-NH2
SMILES: C[C@@H](NC(=O)[C@H](Cc1c[nH]cn1)NC(=O)[C@H](CO)NC(=O)[C@H](Cc1c[nH]c2ccccc12)NC(=O)[C@H](Cc1c[nH]cn1)NC(=O)[C@@H]1CCC(=O)N1)C(=O)N[C@@H](Cc1ccc(O)cc1)C(=O)N[C@@H](Cc1c[nH]c2ccccc12)C(=O)N1CCC[C@H]1C(=O)NCC(N)=O
B4: in the assay with Primate GnRH-2 receptor [2], the “Emax (fold-induction)” value was 12.8 fold-induction and the “Ratio^a (EC50 relative to the EC50 of GnRH-2), luciferase activation” value is 6.61 ratio to GnRH-2.

B5: [D-Lys^6]GnRH-2 (peptide)
peptide: [pGlu]HWSH[dK]WYPG-NH2
SMILES: NCCCC[C@@H](NC(=O)[C@H](Cc1c[nH]cn1)NC(=O)[C@H](CO)NC(=O)[C@H](Cc1c[nH]c2ccccc12)NC(=O)[C@H](Cc1c[nH]cn1)NC(=O)[C@@H]1CCC(=O)N1)C(=O)N[C@@H](Cc1c[nH]c2ccccc12)C(=O)N[C@@H](Cc1ccc(O)cc1)C(=O)N1CCC[C@H]1C(=O)NCC(N)=O
For B5, in the assay with Primate GnRH-2 receptor [2], the “Emax (fold-induction)” value worked out at 11.7 fold-induction and the “Ratio^a (EC50 relative to the EC50 of GnRH-2), luciferase activation” value was 0.66 ratio to GnRH-2.

B6: [D-Ala^6]GnRH-2 (peptide)
peptide: [pGlu]HWSH[dA]WYPG-NH2
SMILES: C[C@@H](NC(=O)[C@H](Cc1c[nH]cn1)NC(=O)[C@H](CO)NC(=O)[C@H](Cc1c[nH]c2ccccc12)NC(=O)[C@H](Cc1c[nH]cn1)NC(=O)[C@@H]1CCC(=O)N1)C(=O)N[C@@H](Cc1c[nH]c2ccccc12)C(=O)N[C@@H](Cc1ccc(O)cc1)C(=O)N1CCC[C@H]1C(=O)NCC(N)=O
notes: Chemically synthesised by AnyGen Co
On to B6, for which the results for the “log IC50” value in the assay with bfGnRHR-3 [4] and with rat GnRHR [9] were -9.83 log IC50 (concentration unit not printed) and -6.85 log IC50 (concentration unit not printed), respectively. Besides, the “Log EC50, inositol phosphate production in GH3 cells expressing the receptor” value (“Log EC50, inositol phosphate production” below) in the assay with rat GnRHR [5] was -8.49 log EC50 (concentration unit not printed); with bfGnRHR-1 [6], -9.91 log EC50 (concentration unit not printed); with bfGnRHR-2 [7] it was -9.91 log EC50 (concentration unit not printed); with bfGnRHR-3 [8], -9.89 log EC50 (concentration unit not printed). For the same molecule, in the assay with rat GnRHR [10], the “inositol phosphate production, sensitivity compared with GnRH-1” value was 10 fold lower sensitivity than GnRH-1. The “inositol phosphate production, concentration needed compared with GnRH-2” value with bfGnRHR-1 [11] is ~8 fold lower concentration than GnRH-2. Moreover, the “Emax (fold-induction)” value in the assay with Primate GnRH-2 receptor [2] was found to be 11.8 fold-induction. Also, in the assay with Primate GnRH-2 receptor [2], the “Ratio^a (EC50 relative to the EC50 of GnRH-2), luciferase activation” value is 0.38 ratio to GnRH-2.

B7: [Leu^5, D-Ala^6]GnRH-2 (peptide)
peptide: [pGlu]HWSL[dA]WYPG-NH2
SMILES: CC(C)C[C@H](NC(=O)[C@H](CO)NC(=O)[C@H](Cc1c[nH]c2ccccc12)NC(=O)[C@H](Cc1c[nH]cn1)NC(=O)[C@@H]1CCC(=O)N1)C(=O)N[C@H](C)C(=O)N[C@@H](Cc1c[nH]c2ccccc12)C(=O)N[C@@H](Cc1ccc(O)cc1)C(=O)N1CCC[C@H]1C(=O)NCC(N)=O
B7: in the assay with Primate GnRH-2 receptor [2], the “Emax (fold-induction)” value amounted to 6.22 fold-induction and the “Ratio^a (EC50 relative to the EC50 of GnRH-2), luciferase activation” value was 11 ratio to GnRH-2.

B8: GnRH-2 (peptide)
peptide: [pGlu]HWSHGWYPG-NH2
modifications: also: I-125 radiolabelled form used as tracer
notes: Purchased from Sigma Co; also called gonadotropin-releasing hormone-2; cGnRH-II
For B8, the “log IC50” value with bfGnRHR-3 [4] is -8.63 log IC50 (concentration unit not printed); with rat GnRHR [9] it was -6.08 log IC50 (concentration unit not printed). The “Log EC50, inositol phosphate production” value with rat GnRHR [5] was -8.06 log EC50 (concentration unit not printed); in the assay with bfGnRHR-1 [6] it was -9.41 log EC50 (concentration unit not printed); in the assay with bfGnRHR-2 [7] it was -8.98 log EC50 (concentration unit not printed); with bfGnRHR-3 [8], -9.51 log EC50 (concentration unit not printed). In addition, in the assay with rat GnRHR [10], the “inositol phosphate production, sensitivity compared with GnRH-1” value is 10 fold lower sensitivity than GnRH-1. Moreover, the “Emax (fold-induction)” value with Primate GnRH-2 receptor [2] came to 11.7 fold-induction. For the same molecule, the “Ratio^a (EC50 relative to the EC50 of GnRH-2), luciferase activation” value in the assay with Primate GnRH-2 receptor [2] is 1 ratio to GnRH-2.

B9: [D-Trp^6]GnRH-2 (peptide)
peptide: [pGlu]HWSH[dW]WYPG-NH2
SMILES: NC(=O)CNC(=O)[C@@H]1CCCN1C(=O)[C@H](Cc1ccc(O)cc1)NC(=O)[C@H](Cc1c[nH]c2ccccc12)NC(=O)[C@@H](Cc1c[nH]c2ccccc12)NC(=O)[C@H](Cc1c[nH]cn1)NC(=O)[C@H](CO)NC(=O)[C@H](Cc1c[nH]c2ccccc12)NC(=O)[C@H](Cc1c[nH]cn1)NC(=O)[C@@H]1CCC(=O)N1
With B9, the figures for the “log IC50” value with bfGnRHR-3 [4] and with rat GnRHR [9] were -8.1 log IC50 (concentration unit not printed) and -7.01 log IC50 (concentration unit not printed), respectively. Also, the “Log EC50, inositol phosphate production” value with rat GnRHR [5] is -7.92 log EC50 (concentration unit not printed); in the assay with bfGnRHR-1 [6], -9.4 log EC50 (concentration unit not printed); with bfGnRHR-2 [7], -9.21 log EC50 (concentration unit not printed); with bfGnRHR-3 [8] it was -9.22 log EC50 (concentration unit not printed). The “Emax (fold-induction)” value with Primate GnRH-2 receptor [2] came to 11.2 fold-induction. In the assay with Primate GnRH-2 receptor [2], the “Ratio^a (EC50 relative to the EC50 of GnRH-2), luciferase activation” value was 1.2 ratio to GnRH-2.

As to Ac-[d2Nal][dPhe(4-Cl)][d3Pal]SY[dCit]WYP[dA]-NH2 [Trptorelix-1], the “Log IC50, inhibition of GnRH-2-induced inositol phosphate production in GH3 cells expressing the receptor” value in the assay with bfGnRHR-2 [3] was -8.1 log IC50 (concentration unit not printed). The “Log IC50, inhibition of GnRH-2-induced c-fos-luc luciferase activity” value with Primate GnRH-2 receptor [1] is -5.74 log IC50 (concentration unit not printed). Besides, the “inhibition of GnRH-2-induced IP production, sensitivity compared with Cetrorelix” value with bfGnRHR-2 [12] was 100 fold more sensitive than Cetrorelix.

B10: GnRH-1 (peptide)
peptide: EHWSYGLRPG
modifications: pyroGlu at 1; C-terminal amide (GlyNH2); radiolabelled with I^125 where used as tracer in Example 4
notes: also called mGnRH; mammalian GnRH
For B10, in the assay with bfGnRHR-3 [4], the “log IC50” value is -7.32 log IC50 (concentration unit not printed). Also, the “Log EC50, inositol phosphate production” value in the assay with bfGnRHR-1 [6] was -8.52 log EC50 (concentration unit not printed); with bfGnRHR-2 [7], -5.59 log EC50 (concentration unit not printed); with bfGnRHR-3 [8] it was -8.42 log EC50 (concentration unit not printed). The “inositol phosphate production, concentration needed compared with GnRH-2” value with bfGnRHR-2 [12] was ~1000 fold higher concentration than GnRH-2.
